Results published in publication PMC4234684 (Cellular and molecular life sciences : CMLS, 2014).

Test: Michaelis–Menten kinetic analysis with colorimetric substrate nitrocefin
Type: biochemical
Conditions: PBS, 30 °C, mean ± SEM

B1: Enterobacter chloacae P99 beta-lactamase (protein, UniProt P05364 21-381, looked up)
Beta-lactamase: TPVSEKQLAEVVANTITPLMKAQSVPGMAVAVIYQGKPHYYTFGKADIAANKPVTPQTLFELGSISKTFTGVLGGDAIARGEISLDDAVTRYWPQLTGKQWQGIRMLDLATYTAGGLPLQVPDEVTDNASLLRFYQNWQPQWKPGTTRLYANASIGLFGALAVKPSGMPYEQAMTTRVLKPLKLDHTWINVPKAEEAHYAWGYRDGKAVRVSPGMLDAQAYGVKTNVQDMANWVMANMAPENVADASLKQGIALAQSRYWRIGSMYQGLGWEMLNWPVEANTVVEGSDSKVALAPLPVAEVNPPAPPVKASWVHKTGSTGGFGSYVAFIPEKQIGIVMLANTSYPNPARVEAAYHILEALQ
modifications: C-terminal His6 tag
kcat/Km: 7.5e+06 ± 600000 M⁻¹ s⁻¹
